In patent publication EP1828247B1 (Crucell Holland B.V., dated 2011):

Experiments:
[1] = target: T1, West Nile virus strain USA99b (strain 385-99), whole virus (West Nile virus strain 385-99 (USA99b)); assay: phage antibody ELISA on coated whole inactivated WNV
T1 construct: also called WN virus; WNV

[2] = target: T2, recombinantly expressed purified soluble WNV E protein (strain 382-99), truncated form with Myc and His tags (West Nile virus strain 382-99, UniProt Q9Q6P4 291-696); assay: phage antibody ELISA on coated recombinant soluble WNV E protein
T2 construct: also called recombinant WNV-E protein; truncated E protein; not shown: Myc tag and His tag from pAdapt.myc.his
T2 sequence: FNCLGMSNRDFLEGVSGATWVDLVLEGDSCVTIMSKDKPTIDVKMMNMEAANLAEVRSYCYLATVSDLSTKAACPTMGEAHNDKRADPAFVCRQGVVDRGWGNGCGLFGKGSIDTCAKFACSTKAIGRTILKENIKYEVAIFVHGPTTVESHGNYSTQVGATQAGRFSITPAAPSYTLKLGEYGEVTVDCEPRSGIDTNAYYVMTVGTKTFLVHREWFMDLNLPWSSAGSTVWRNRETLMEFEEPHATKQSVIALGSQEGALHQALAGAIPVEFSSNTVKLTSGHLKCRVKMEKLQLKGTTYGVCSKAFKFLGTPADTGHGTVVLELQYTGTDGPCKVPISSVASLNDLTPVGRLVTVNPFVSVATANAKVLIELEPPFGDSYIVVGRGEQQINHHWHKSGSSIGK

[3] = target: T2, recombinantly expressed purified …; assay: as above; remark: listed apart in the source

B1: SC04-289 (scFv)
scFv: QMQLVQSGAEVKKPGESLRISCKGSGYSFTSNWITWVRQMPGKGLEWMGRIDPSDSYTNYSPSFQGHVTISADKSISTAYLQWSSLKASDTAMYYCARDVVGVGASDYYYYMDVWGKGTTVTVSSGTGGSGGTGSGTGGSTEIVLTQSPGTLSLSPGETATLSCRTSQSVSSSYLGWYQQKPGQAPRLLIYGASIRATGIPARFSGSGSGTEFTLTIDSLQSEDFAVYYCQQYNNWPPITFGQGTRLEIKR
[1]
  OD 492nm: 0.759 OD 492nm

B2: SC04-299 (scFv)
scFv: EVQLVETGGGVVQPGRSLRLSCAASGFTFSGYAMHWVRQAPGKGLDWVAVISYDGSEKYSADSVKGRFTISRDNSKNTLYLQMNSLRAEDTAVYYCAKESGGPIWYKYYGVDVWGQGTTVTVSSGTGGSGGTGSGTGGSTSYVLTQPPSLSAAPRQRVTISCSGSSSNIGNYGVNWYQQLPGKAPKLLIYYDDLLPSGVSDRFSGSKSGTSASLAISGLQSEDEGDYYCAAWDDTLSAWVFGGGTKLTVLG
[1]
  OD 492nm: 1.07 OD 492nm
[2]
  OD 492nm: 0.072 OD 492nm

B3: SC04-271 (scFv)
scFv: EVQLVETGAEVKKPGESLRISCKGSGYTFNNYWIGWVRQMPGKGLEWMGIIYPGDSDTRYSPSVQGHVTISADKSINTAYLQWSSLKASDTAVYYCARRPGYDYGFYYFDYWGQGTLVTVSSGTGGSGGTGSGTGGSTQSALTQPRSVSGSPGQSVTISCTGTSSDVGGYNYVSWYQHHPGKAPKLMIYDVSNRPLGVSNRFSGSKSGNTASLTISGLQAEDEADYYCSSYTSSSTYVFGTGTHLTVLS
[1]
  OD 492nm: 0.984 OD 492nm
[2]
  OD 492nm: 0.608 OD 492nm

B4: SC04-311 (scFv)
scFv: EVQLVQSGGGVVQPGRSLRLSCVASGFTFSKDAMHWVRQAPGKGLEWVAVISYDGSDKHYADSVKGRVTISRDNSRKTLYLRMDSLRAEDTALYYCARGYNSGHYFDYWGQGTLITVSSGTGGSGGTGSGTGGSTQSVLTQPPSVSAAPGQKVTISCSGTSSNIGDNYVSWYQHLPGTAPKLLIYDNNKRPSGIPDRFSGSKSGTSATLGVTGLQTGDEADYYCGTWDSSLTAVVFGGGTKLTVLG
[1]
  OD 492nm: 1.04 OD 492nm

B5: SC04-283 (scFv)
scFv: EVQLVQSGAEVKKSGESLKISCKGSGYTFNTYWIGWVRQMPGKGLEWMGIIYPGDSDTIYSPSFQGQVTISADKSISTAYLQWSSLKASDSAMYYCARLTFRRGYSGSDSFLPPGDFDYWGQGTLVTVSSGTGGSGGTGSGTGGSTDIQMTQSPSTLSASVGDRVTITCRASQSISSWLAWYQQKPGKAPNLLIYAASSLQSGVPSRFSGSGSGTDFTLTISSLQPDDSATYYCQQYNTYPLTFGGGTKVEIKR
[1]
  OD 492nm: 1.21 OD 492nm
[2]
  OD 492nm: 0.074 OD 492nm

B6: SC04-353 (scFv)
scFv: EVQLVQSGGGVVQPGRSLRLSCAASGFTFSNYAMHWVRQAPGKGLEWVAVISYDGGNKYYADSVKGRFTMSRDNSKNTLYLQMNSLRAEDTAVYYCARDFWSGYSMVDSYYYYMDVWGKGTTVTVSSGTGGSGGTGSGTGGSTETTLTQSPGTLSLSPGERATLSCRASQSVSNTFLAWYQQKPGQAPRLLIYGASSRATGIPDRFSGSGSGTDFTLTISRLEPEDFAAYYCQQYGSSLTFGPGTKVDIKR
[3]
  binding result: no binding
[2]
  OD 492nm: 0.099 OD 492nm

B7: SC04-361 (scFv)
scFv: EVQLVQSGAEVKKPGESLKISCKASGFSFSTYWIGWVRQMPGKGLEWMGIIYPADSDTRYSPSFQGQVTISADKSISTAYLQWSSLKASDTAMYYCARLRGPYYDFWNGYRETHDAFNVWGQGTMVTVSSGTGGSGGTGSGTGGSTDVVMTQSPDSLAVSLGERATINCKSSQNILDNSDNKNFLAWYQQKPGQPPKLLIYWASARESGVPDRFSGSGSGTDFTLTISSLQAEDVALYYCQQYYNTPITFGQGTRLEIKR
[3]
  binding result: no binding
[2]
  OD 492nm: 0.076 OD 492nm
